Results as given in publication PMC10764958.

Target: SARS2-NP SIM1A (poly-SUMOylated) (SARS-CoV-2) (UniProt P0DTC9)
Experiment: MST
Details: MST: PBS with 0.05% Tween, room temperature

Sequence: CACUCGCUAUGUCGAUAACAACUUCUGUGGCCCUGAUGGCUACCCUCUUGAGUGCAUUAAAGA [Cy5-RNA (SARS-CoV-2 RNA)]
- Kd: 2.71 nM
